# Results taken from article PMC10228794.
# Biological target: 10.17DT SOSIP
# Test: SPR
# Conditions: mutated DH270 UCA antibodies were injected at 100nM; 3000–4000 RUs of 10.17DT on the sensor chip; parent: est. 43; read off a plot
row,Substance,response [RU]
1,DH270 UCA IgG (unmutated common ancestor of bnAb DH270.6) I102S,34
2,DH270 UCA IgG (unmutated common ancestor of bnAb DH270.6) I102V,54
3,DH270 UCA IgG (unmutated common ancestor of bnAb DH270.6) W101R,0
4,DH270 UCA IgG (unmutated common ancestor of bnAb DH270.6) I102D,6.5
5,DH270 UCA IgG (unmutated common ancestor of bnAb DH270.6) I102L,29
6,DH270 UCA IgG (unmutated common ancestor of bnAb DH270.6) Y111F,38
7,DH270 UCA IgG (unmutated common ancestor of bnAb DH270.6) Y111W,26
8,DH270 UCA IgG (unmutated common ancestor of bnAb DH270.6) Y111N,0
9,DH270 UCA IgG (unmutated common ancestor of bnAb DH270.6) W101G,3.5
10,DH270 UCA IgG (unmutated common ancestor of bnAb DH270.6) W101F,36
11,DH270 UCA IgG (unmutated common ancestor of bnAb DH270.6) Y111H,25
12,DH270 UCA IgG (unmutated common ancestor of bnAb DH270.6) I102N,43
13,DH270 UCA IgG (unmutated common ancestor of bnAb DH270.6) W101Y,15
